Data as given in patent US20250249092A1 (TORAY INDUSTRIES, published 2025).
Each block holds one binder with its values, some of them ahead of it.

Assays:
[1] = biological target: T1, CAPRIN-1 on the cell membrane surface of mouse cancer cells (mouse, UniProt Q60865 2-707); test: 4T1 cells
T1 construct: whole, on cells; also called CAPRIN-1 protein
T1 sequence (looked up): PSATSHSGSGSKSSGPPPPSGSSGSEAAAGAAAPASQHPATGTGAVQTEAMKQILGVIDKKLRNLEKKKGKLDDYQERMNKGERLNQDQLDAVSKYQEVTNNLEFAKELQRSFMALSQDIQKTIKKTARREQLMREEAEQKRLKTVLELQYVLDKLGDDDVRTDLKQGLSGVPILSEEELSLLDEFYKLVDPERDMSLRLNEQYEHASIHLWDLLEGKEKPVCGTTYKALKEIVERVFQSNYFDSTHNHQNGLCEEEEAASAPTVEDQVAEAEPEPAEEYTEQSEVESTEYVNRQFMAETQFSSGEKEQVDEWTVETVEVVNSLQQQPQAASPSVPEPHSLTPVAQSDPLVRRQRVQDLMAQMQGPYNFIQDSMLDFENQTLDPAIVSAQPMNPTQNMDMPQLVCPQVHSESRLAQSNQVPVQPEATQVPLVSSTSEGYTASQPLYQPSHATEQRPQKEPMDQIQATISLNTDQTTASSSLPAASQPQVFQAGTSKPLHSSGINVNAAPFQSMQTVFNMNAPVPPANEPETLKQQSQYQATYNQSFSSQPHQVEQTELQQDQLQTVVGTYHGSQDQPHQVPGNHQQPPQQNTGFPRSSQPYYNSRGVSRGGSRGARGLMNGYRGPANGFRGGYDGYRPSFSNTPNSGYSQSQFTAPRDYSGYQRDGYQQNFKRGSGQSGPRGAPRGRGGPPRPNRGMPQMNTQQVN

[2] = biological target: T2, CAPRIN-1 on the cell membrane surface of human cancer cells (human, UniProt Q14444 2-709); test: BT474 cells, as shown in Example 5
T2 construct: whole, on cells; also called CAPRIN-1 protein
T2 sequence (looked up): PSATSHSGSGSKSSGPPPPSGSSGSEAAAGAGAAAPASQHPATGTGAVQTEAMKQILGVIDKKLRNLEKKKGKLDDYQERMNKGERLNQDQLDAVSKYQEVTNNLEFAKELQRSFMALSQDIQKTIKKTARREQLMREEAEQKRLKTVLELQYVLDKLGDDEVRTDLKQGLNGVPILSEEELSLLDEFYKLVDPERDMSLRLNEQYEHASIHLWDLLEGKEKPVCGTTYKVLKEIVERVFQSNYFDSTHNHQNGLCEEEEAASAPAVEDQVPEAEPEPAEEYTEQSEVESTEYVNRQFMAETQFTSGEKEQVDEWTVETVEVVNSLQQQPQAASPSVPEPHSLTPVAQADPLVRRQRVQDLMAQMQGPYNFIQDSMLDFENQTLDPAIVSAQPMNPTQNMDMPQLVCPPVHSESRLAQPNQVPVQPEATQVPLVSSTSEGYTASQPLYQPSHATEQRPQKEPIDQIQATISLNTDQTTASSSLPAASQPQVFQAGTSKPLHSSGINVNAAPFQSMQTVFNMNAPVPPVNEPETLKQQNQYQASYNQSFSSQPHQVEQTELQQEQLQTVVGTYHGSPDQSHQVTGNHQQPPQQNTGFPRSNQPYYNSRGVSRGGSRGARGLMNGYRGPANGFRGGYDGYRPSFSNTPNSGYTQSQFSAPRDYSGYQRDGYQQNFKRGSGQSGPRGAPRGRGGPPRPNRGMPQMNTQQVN

binding result [1]: binds
B1: Conjugate 31 (antibody, V domains shown)
VH: AVTLDESGGGLQTPGGGLSLVCKASGFTFSSFDMGWVRQAPGKGLEFVAQINDAGSRTWYATAVKGRATISRDNGQTTVRLQLNNLRAEDTGTYYCTRGSGYVGAGAIDAWGHGTEVIVS
VL: AALTQPSSVSANPGETVKITCSGGSGYYGWYQQQKSPGSAPVTVIYQNDKRPSDIPSRFSGSGSGSTNTLTITGVQAEDEAVYFCGRYDSTDSGIFGAGTTLTVL
notes: mouse chimeric antibody #3 (mouse IgG constant regions) + resiquimod, MC-Val-Cit-PAB linker

binding result [1]: binds
B2: Conjugate 35 (antibody, V domains shown)
VH: B1 VH
VL: B1 VL
notes: mouse chimeric antibody #3 (mouse IgG constant regions) + resiquimod derivative, SATA and SMCC linkers

binding result [1]: binds
B3: Conjugate 29 (antibody, V domains shown)
VH: AVTLDESGGGLQMSRGGLSLVCKASGFDFSSYQMNWIRQAPGKGLEFVAAINKFGNSTGHGAAVKGRVTISRDNGQSTVRLQLNNLRAEDTAIYFCTKHAYGYCGSGTWCAAGEIDAWGHGTEVIVSS
VL: QAASTQPSSVSANPGETVEITCSGGGSYSYGWFQQKSPGSAPVTVIYYNNKRPSDIPSRFSGSKSGSTGTLTITGVQADDEAVYYCGSGDSTDTAVFGAGTTLTVLG
notes: mouse chimeric antibody #1 (mouse IgG constant regions) + resiquimod, MC-Val-Cit-PAB linker

binding result [1]: binds
B4: Conjugate 33 (antibody, V domains shown)
VH: B3 VH
VL: B3 VL
notes: mouse chimeric antibody #1 (mouse IgG constant regions) + resiquimod derivative, SATA and SMCC linkers

binding result [2]: binds
B5: Conjugate 8 (antibody, human IgG1, V domains shown)
VH: EQSLVESGGGLVQPGGSLRLSCAASGFSLSSHSLGWVRQAPGKGLEWIGDIRSGGSAYYANWAKGRFTISRDNSKNTLYLQMNSLRAEDTAVYYCTRTNGPSDLTNRLDLWGQGTLVTVSS
VL: QVLTQSPSSLSASVGDRVTINCQASQSLYNNENLAWFQQKPGKVPKRLIYGASTLASGVSSRFSGSGSGTEFTLTISSLQCEDFAIYYCLGEFSCGSADCFAFGGGTKVEIK
notes: humanized antibody #2 (human IgG1) + resiquimod, MC-Val-Cit-PAB linker

binding result [2]: binds
B6: Conjugate 22 (antibody, human IgG1, V domains shown)
VH: B5 VH
VL: B5 VL
notes: humanized antibody #2 (human IgG1) + resiquimod derivative, SATA and SMCC linkers

binding result [1]: binds
B7: Conjugate 30 (antibody, V domains shown)
VH: B5 VH
VL: B5 VL
notes: mouse chimeric antibody #2 (mouse IgG constant regions) + resiquimod, MC-Val-Cit-PAB linker

binding result [2]: binds
B8: Conjugate 12 (antibody, human IgG1, V domains shown)
VH: B5 VH
VL: B5 VL
notes: humanized antibody #6 (V regions of #2; human IgG1 S239D/I332E) + resiquimod, MC-Val-Cit-PAB linker

binding result [1]: binds
B9: Conjugate 34 (antibody, V domains shown)
VH: B5 VH
VL: B5 VL
notes: mouse chimeric antibody #2 (mouse IgG constant regions) + resiquimod derivative, SATA and SMCC linkers

binding result [2]: binds
B10: Conjugate 26 (antibody, human IgG1, V domains shown)
VH: B5 VH
VL: B5 VL
notes: humanized antibody #6 (V regions of #2; human IgG1 S239D/I332E) + resiquimod derivative, SATA and SMCC linkers
